{
  "source": "patent US20030103946A1",
  "about": "“Immunotherapeutic methods and molecules” (Imperial College Innovations Limited, priority 2000, published 2003)",
  "key": {"[1]": {"target": "T1, HLA-A0201 (Homo sapiens, UniProt P04439, D140Y/D185E/D98H/E176V/E277Q/G131W/G231S/I119V/I121R/I166T/I218V/L300P/L318F/N151K/N90K/P208A/P217A/Q86G/Q94H/R138H/R169H/T345S)", "T1 construct": "ability of peptides to stabilise HLA-A0201 expression in the TAP-deficient T2 cells; endogenous in cells; host or cells: T2 cells (human, TAP-deficient; ATCC CRL 1992)", "assay": "T2 assay: HLA-A0201 binding of peptides (stabilisation of HLA-A0201 expression in TAP-deficient T2 cells)", "description": "By “HLA-binding” peptide we mean a peptide which binds to one or more HLA molecules. Typically, a peptide will show HLA binding in a T2 binding assay when present in a concentration range of 10 μM to 1 nM. Whether or not a peptide of human CD45 is an HLA-binding peptide can be determined using methods known in the art. These methods include the T2 HLA stabilisation assay described in FIG. 1, and the method described by Elvin et al (1993) J. Immunol. Methods 158, 161-171.\nPeptide binding was measured using the T2 assay that is based on the ability of peptides to stabilise HLA-A0201 expression in the TAP-deficient T2 cells.\nSixteen peptides of the CD45 molecule were selected and 14 of them we tested in HLA-A0201 binding assays as described in the legend to FIG. 1."}, "[2]": {"system": "CTL from HLA-A0201 negative donors", "assay": "Stimulation of peptide-specific allorestricted CTL responses by peptide", "assay_type": "cell-based, human", "source_text": "Peptide-specific CTL were isolated from HLA-A0201 negative donors using the method described in WO 97/26328. Three peptide-specific lines were established and found to show specific killing of T2 target cells presenting peptide 1218 but not targets presenting control HLA-A0201− binding peptides (HBV(18-27)).\nPeptide-specific CTL were isolated from HLA-A0201 negative donors using the method described in WO 97/26328. Three peptide-specific lines were established and found to show specific killing of T2 target cells presenting peptide 1218 but not targets presenting control peptides."}},
  "note": "Where two headings read alike, the source gives them in different places.",
  "data": [
    {"sequence": "FLYDVIAST [huCD45/1218, peptide of human CD45]", "values": [
      {"measurement": "HLA-A0201 binding", "setting": "[1]", "value": "binds HLA-A0201"},
      {"measurement": "HLA-A0201 binding", "setting": "[1]; listed as Peptide 1218", "value": "one of the best binders"},
      {"measurement": "HLA-A0201 binding", "setting": "[1]; listed as p1218", "value": "one of the best binding peptides"},
      {"measurement": "HLA-A0201 binding", "setting": "[1]; listed as peptide 1218", "value": "one of the best binders"},
      {"measurement": "induction of peptide specific CTL", "setting": "[2]; listed as Peptide 1218", "value": "can induce peptide specific CTL"},
      {"measurement": "induction of peptide specific CTL", "setting": "[2]; listed as p1218", "value": "reliably generate peptide-specific, allorestricted CTL"}
    ]}
  ]
}
